Results reported in the supplement of paper PMC7125110.
Variants at the floor of the assay were thinned out.

B1: glmS ribozyme (parent)
chain: AUAAAAGCGCCAGAACUACAGAAAUGUAGUUGACGAGGAGGAGGUUUAUCGAAUUUUCGGCGGAUGCCUCCAAA

How the values were obtained:
Conditions in all cases: with glucosamine-6-phosphate
glucosamine-6-phosphate [1] = variants of: B1; test: self-cleavage kobs at 640 uM GlcN6P; higher = faster cleavage; RNA array
Method in brief: (§1)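 A hybridised Cy3 probe tracked barcoded ribozyme variants, transcribed in situ by E. coli RNA polymerase on sequenced MiSeq chips, at 37 °C. The variants received 40 μM to 10 mM glucosamine-6-phosphate in HEPES/KCl/Mg(OAc)2 buffer. kobs came from decay fits and kcat and KM from weighted Michaelis–Menten fits.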

glucosamine-6-phosphate [2] = variants of: B1; test: self-cleavage kobs at 2500 uM GlcN6P; higher = faster cleavage; RNA array
Method in brief: as §1

glucosamine-6-phosphate [3] = variants of: B1; test: self-cleavage kobs at 10000 uM GlcN6P; higher = faster cleavage; RNA array
Method in brief: as §1

| Variant | self-cleavage kobs at 640 uM GlcN6P (glucosamine-6-phosphate [1]) | self-cleavage kobs at 2500 uM GlcN6P (glucosamine-6-phosphate [2]) | self-cleavage kobs at 10000 uM GlcN6P (glucosamine-6-phosphate [3]) |
| --- | --- | --- | --- |
| AUAAAAGUGCCAGAACUACAGAAAUGUAGUUGACGAGGAGGAGGUUUAUCGAAUUUUCGGCGUAUGCUUCCAAA | < 1e-05 s⁻¹ |  |  |
| AUAAAAGCAUCAGAACUACAGAAAUGUAGUUGACGAGGAGGAGGUUUAUCGAAUUUUCGGCGGAUGCAUCCAAA | < 1e-05 s⁻¹ |  |  |
| AUAAAAGUGCCAGAGUUACAGAAAUGUAGUUGACGAGGAGGAGGUUUAUCGAAUCUUCGGCGGAUGCCUCCAAA | < 1e-05 s⁻¹ |  |  |
| AUAAAAGUACCAGAUCUACAGAAAUGUAGUUGACGAGGGGGAGGUUUAUCGAAUUUUCGGCGGAUGCCUCCAAA | < 1e-05 s⁻¹ | < 1e-05 s⁻¹ |  |
| AUAAAAGGGCCAGAACUACAGAAAUGUAGUUGACGAGGAGGAAGUGUAUCGAAUUUUCGGCGGAUGCCUCCAAA | < 1e-05 s⁻¹ |  | < 1e-05 s⁻¹ |
| AUAAAAGGGCCAGAACUACAGAAAUGUAGUUUACGAGGAGGAGGUUUAUCGAAUUUUCGGCGGAUGCCUCCAAA | < 1e-05 s⁻¹ | < 1e-05 s⁻¹ |  |
| AUAAAAGGGCCACAACUACAGAAAUGUAGUUGACGAGGAAGAGGUUUAUCGAAUUAUCUGCGGAUGCCUCCAAA | < 1e-05 s⁻¹ |  |  |
| AUAAAAGGGCCAGAACUACAGAAAUGUAGUUGACAAGGAGGAGGUUUAUCGAAUCUUCGUCGGAUGACUCCAAA | < 1e-05 s⁻¹ | < 1e-05 s⁻¹ |  |
| AUAAAAGGGCCAGAACUACAGAAAUGUAGUUAACGAGGAGGAGGUCUAUCGAUUUUUCGGCGCAUGCCUCCAAA | < 1e-05 s⁻¹ | < 1e-05 s⁻¹ |  |
| AUAAAAGGGCCAGAACUACAGAAAUGUAGUUGACGAGGAGGAGGUUUAUCGAAUUUUCGGCGGAUGUCUGCAAA | < 1e-05 s⁻¹ |  |  |
| AUAAAAGGGCCAGAACUACAGAAAUGUAGUUGACGAGGAGGAGGUUUAUCGAACUUUCGACGGAUGCCUCCAAA | < 1e-05 s⁻¹ | < 1e-05 s⁻¹ |  |
| AUAAAAGGGCCAGAACUACAGAAAUGUAGUUAACGAGGGGGAGGUUUAUCGAAAUUUCGGCGGAUGCCUCCAAA | < 1e-05 s⁻¹ | < 1e-05 s⁻¹ |  |
| AUAAAAGUGCCAGAACUACAGAAAUGUAGUUGACGAGGAGGAGGUUUAUCGAAUUUUAGGCGGACGCCUCCAAA | < 1e-05 s⁻¹ | < 1e-05 s⁻¹ |  |
| AUAAAAGGGCCAGAACUACAGAAAUGUAGUUUACGAGGAGGAGCUUUAUCGAAUUUUCGGCGGAUGCCUCCAAA | < 1e-05 s⁻¹ |  |  |
| AUAAAAGUGCCAAAACUACAGAAAUGUAGUUGACGAGGAGGAGGUUUAUCGAAUUUUCGGCGGAUUCCUCCAAA | < 1e-05 s⁻¹ | < 1e-05 s⁻¹ |  |
| AUAAAAGUCCCAGAACUACAGAAAUGUAGUUGACGAGGAGGAGGUUUAUAUAAUUUUCGUCGGAUGCCUCCAAA | < 1e-05 s⁻¹ |  |  |
| AUAAAAGUGCCAGAACUACAGAAAUGUAGUUGACGAGGAGGAAGUUUAUCGAAUUUUGGGCGGAUGCCUCCAAA | < 1e-05 s⁻¹ | < 1e-05 s⁻¹ |  |
| AUAAAAGUGCCAGAACUACAGAAAUGUAGUUGACGAGGAGGAGGUUUAUCGAAUUUUUGGCCGUUGCCUCCAAA | < 1e-05 s⁻¹ | < 1e-05 s⁻¹ |  |
| AUAAAAGCACCAGAACUACAGAAAUGUAGUUGACGAGGAGGAGGUUUAUUGAAUUUUCGGCGGAUGCCUCCAAA | < 1e-05 s⁻¹ | < 1e-05 s⁻¹ | < 1e-05 s⁻¹ |
| AUAAAAGUGCCAGAACUACAGAAAUGUAGUUGACGAGGAGGAGGUUUAUAGAAUUUUCGGCGGAUGCCUCCAAA | < 1e-05 s⁻¹ | < 1e-05 s⁻¹ | < 1e-05 s⁻¹ |
| AUAAAAGUGCCAGAUCUACAGAAAUGUAGUUGACGAGGAGGAGGUGUAUCAAAUUUUCGGCGGAUACCUCCAAA | < 1e-05 s⁻¹ |  |  |
| AUAAAAGGGCCACAACUACAGAAAUGUAGUUGACGAGGAGGAGGUUUAUCGAAUUUUCAGCGGAUGCCGCCAAA | < 1e-05 s⁻¹ |  |  |
| AUAAAAGUGCCAGAACUAAAGAAAUGUAGUUGACAUGGAGGAGGUUUAUCUAAUUUUCGGCGGAUGCCUCCAAA | < 1e-05 s⁻¹ |  |  |
